# In US20220088134A1 (REGENTS OF THE UNIVERSITY OF MINNESOTA, published 2022):
# B1: human CD200AR-L peptide P4A10 (peptide)
# peptide: Ac-CLFNTFGFGAISGTA-NH2
# Molecular target: human CD200 activation receptors (CD200AR) (human)
# Experiment: cell-based or functional assay
binder,measurement,value
B1,T-cell secretion of IFNγ after treatment of iDCs with P4A10,5.4 fold
same,T-cell secretion of IL6 after treatment of iDCs with P4A10,5.6 fold
same,T-cell secretion of RANTES after treatment of iDCs with P4A10,16.3 fold
same,T-cell secretion of TNFα after treatment of iDCs with P4A10,16.6 fold
